This is an account of results in the supplement of paper PMC10567573.

± gives the standard deviation.

A short description of the series: protein stability index of a GFP-peptide fusion (GPS, HEK-293T) (PSI 1-6); higher = more stable.
Where [1] appears, read: treatment: DMSO, c terminus: a fixed tail appended.
[2] abbreviates: treatment: MLN4924 1 uM, 8 h, c terminus: a fixed tail appended.
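Further: 24-mer peptide tiles fused after GFP, lentivirally expressed, FACS-sorted into six equal bins by GFP/DsRed ratio, decoded by Illumina sequencing, PSI is the read-weighted mean bin number.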

As to CPKYKFISCPTCRRETVLFTDYGL [RNF208], the protein stability index turned out to be 2.28 ± 0.25 under setting [1] and 2.25 ± 0.21 under setting [2].
Regarding CPLLLGSVMAIERCIGVTKPIFHS [PTGFR], the protein stability index by setting is: under setting [1], 2.78 ± 0.87; under setting [2], 2.77 ± 0.68.
The like results for CQQEQLFQTRQEMTSMSAELKMRA [LRRC45] were, in that order, 3.03 ± 0.42 and 3.1 ± 0.21.
The like results for CWNTSYCSIKCQQEHWHAEHKRTC [ZMYND11] were, in that order, 2.31 ± 0.39 and 2.32 ± 0.22.
The like results for DALLGIDDLETMPDDLLTTLDDTC [ATF4] were, in that order, 5.17 ± 0.16 and 5.05 ± 0.34.
As to DDGKLGATGPMGMRGFKGDRGPKG [SCARA5], the protein stability index turned out to be 5.02 ± 0.36 under setting [1] and 5.07 ± 0.13 under setting [2].
With DDIEEKTPISNEVEMESEEQIAER [KMT2E], the protein stability index was determined as 5.8 ± 0.16 under setting [1] and 5.66 ± 0.26 under setting [2].
With DDWEDDYDYPEEEQLSGAGYRVSA [EID1], the protein stability index runs as follows: under setting [1], 4.9 ± 0.29; under setting [2], 5.04 ± 0.21.
The like results for DEAQGACLQQKQVVAEAQTRVSQL [LRRC45] were, in that order, 5.23 ± 0.12 and 5.09 ± 0.31.
For the sequence DEDSEPEREVRAKNGRVDSEDRRS [USP39], the protein stability index is 5.62 ± 0.33 under setting [1] and 5.517 ± 0.016 under setting [2].
Regarding DEGDEPMPIPEDLSTTSGGQQSSK [IKZF1], the protein stability index reads like this: under setting [1], 5.42 ± 0.65; under setting [2], 5.56 ± 0.28.
For the sequence DEGGITKQPPVTQSKTASDKSPST [FBF1], the protein stability index is 5.44 ± 0.21 under setting [1] and 5.56 ± 0.19 under setting [2].
Regarding DELVGLPFSSHTYSQASELPTDAV [FBXO34], the protein stability index was 4.95 ± 0.18 under setting [1] and 4.81 ± 0.081 under setting [2].
The like results for DGSVVRDFEHRPKAPVVECSITGD [WDR88] were, in that order, 5.4 ± 0.21 and 5.32 ± 0.16.
With DHLGWVARGTGSGEDSSTSSSTPL [RTN2], the protein stability index turned out to be 4.73 ± 0.18 under setting [1] and 4.54 ± 0.25 under setting [2].
DHTSEAVRNLFGLDPSSGAIHVLG [PCDHGC5] registered a protein stability index under setting [1] of 3.16 ± 0.24 and a protein stability index under setting [2] of 3.09 ± 0.19.
As for DILWEHLEQMIKENQEKTEDQYEE [ETS2], the protein stability index was 5.02 ± 0.21 under setting [1] and 5.22 ± 0.2 under setting [2].
Regarding DISPPIFRRGEKLRVISDEGGWWK [SLA], the protein stability index came to 3.02 ± 0.71 under setting [1] and 2.87 ± 0.42 under setting [2].
The like results for DLASAAAKQIMEETYKMEFMYSGV [INTS4] were, in that order, 2.58 ± 0.52 and 2.5 ± 0.16.
The like results for DLFEKKGYTFDYAYDWVGRPIPTP [CSNK1G1] were, in that order, 2.26 ± 0.58 and 2.37 ± 0.29.
As to DLLNNKLVTLPVSFAQLKNLKWLD [LRRC59], the protein stability index is, setting by setting: under setting [1], 2.24 ± 0.23; under setting [2], 2.17 ± 0.31.
The like results for DMRNSATFKSFEDRVGTIKSKVVG [TPD52L2] were, in that order, 3.24 ± 0.16 and 3.61 ± 0.23.
The like results for DNPSVLSGPMQAALQAAAHASVDI [SMG5] were, in that order, 4.05 ± 0.14 and 4.29 ± 0.26.
The like results for DPACYEFLWGPRALVETSYVKVLH [MAGEA3] were, in that order, 2.12 ± 0.2 and 2.12 ± 0.36.
For the sequence DPIVRPLWWIAPGDETAHRIDSQF [MYORG], the protein stability index is, setting by setting: under setting [1], 3.23 ± 0.18; under setting [2], 3.24 ± 0.27.
Consider DPNKMAFGCEECGKKYNTMLGYKR [PLAGL1], for which the protein stability index is 3.07 ± 0.49 under setting [1] and 3.46 ± 0.64 under setting [2].
Turning to DPVLAKVAGDCLDEKQCKQCANKV [LRRC59], the protein stability index reads like this: under setting [1], 4.99 ± 0.42; under setting [2], 5.07 ± 0.09.
Consider DQEQGSSFQMSEGSEAAVIPLDLG [FAM189A2], for which the protein stability index was determined as 5.34 ± 0.35 under setting [1] and 5.48 ± 0.17 under setting [2].
The like results for DQSDEGSSSQKEESPSTLQVLPDS [MAGEA10] were, in that order, 5.66 ± 0.21 and 5.56 ± 0.16.
For the sequence DRKARKPLVEKKRRARINESLQEL [HES6], the protein stability index amounted to 4.37 ± 0.22 under setting [1] and 4.71 ± 0.13 under setting [2].
The like results for DRSTEPDRLQVFHKRAIMPYGVYK [ATE1] were, in that order, 3.44 ± 0.24 and 3.47 ± 0.26.
The like results for DSCVLTGPDDSLWDKHACPAYVGP [TRIB3] were, in that order, 3.65 ± 0.33 and 3.62 ± 0.19.
Turning to DSGASAITRESHTHRDRPSQQQPL [CSNK1G1], the protein stability index is, setting by setting: under setting [1], 5.09 ± 0.15; under setting [2], 5.15 ± 0.17.
On to DSLTSLQWLQEFSILNAKAPALPP [FOXJ1], for which the protein stability index by setting is: under setting [1], 2.26 ± 0.043; under setting [2], 2.19 ± 0.075.
The like results for DSSEEKHLEEPGETQNAFLNERKQ [CHGB] were, in that order, 5.5 ± 0.41 and 5.41 ± 0.36.
As to DSVSVNDIDLSLYIPRDVDETGIT [ZC3H15], the protein stability index by setting is: under setting [1], 3.76 ± 0.15; under setting [2], 4.36 ± 0.11.
The like results for DTDKWIQKAPMTTVRGLHCMCTVG [KLHL13] were, in that order, 2.32 ± 0.25 and 2.81 ± 0.35.
The like results for DTYDSVYLHPNSYSCACLASGSVL [HDAC6] were, in that order, 2.21 ± 0.15 and 2.3 ± 0.25.
Sequence DVAGNLDYKALSYVITHGEEKEE [MYL5] yielded a protein stability index (treatment: DMSO, c terminus: native) of 2.62 ± 0.7 and a protein stability index (treatment: MLN4924 1 uM, 8 h, c terminus: native) of 3.56 ± 1.1.
For DVALVLTVLLEEETLEASVGPRET [TOR1AIP2], the protein stability index under setting [1] stood at 2.49 ± 0.51 and the protein stability index under setting [2] came to 2.27 ± 0.31.
For DYIRRYLPVLRGFPAKYIYDPWNA [CRY1], the protein stability index by setting is: under setting [1], 2.53 ± 0.5; under setting [2], 2.16 ± 0.2.
For the sequence DYLDLDKMSLYSEADSGYGSYGGF [TRIM9], the protein stability index under setting [1] was 2.46 ± 0.51 and the protein stability index under setting [2] came out at 2.77 ± 0.24.
For the sequence EAAEGKSLGSALKPGEGRSALFAG [TRIM29], the protein stability index was 4.87 ± 0.17 under setting [1] and 4.76 ± 0.19 under setting [2].
The like results for EAANLLIPAVGSSLSEALDLIESD [MYBL2] were, in that order, 4.81 ± 0.14 and 4.72 ± 0.2.
EAAPRQCIELYFDEKYSIEPSWEC [NETO1]: the protein stability index stood at 2.48 ± 0.2 under setting [1] and 2.73 ± 0.57 under setting [2].
The like results for EALAATWEQPWASEVFGPERMPPS [PXN] were, in that order, 3.33 ± 0.27 and 3.5 ± 0.47.
The like results for EALGLEAEGAVPETQTLTGWSKGF [RHOBTB1] were, in that order, 3.79 ± 0.098 and 4.05 ± 0.27.
On to EALKHPWICQRSTVASMMHRQETV [CAMK2D], for which the protein stability index is 2.81 ± 0.28 under setting [1] and 2.73 ± 0.25 under setting [2].
Regarding EALVRTVLRAGDREDITEPAICAL [CTNNB1], the protein stability index came out at 3.45 ± 0.29 under setting [1] and 3.6 ± 0.51 under setting [2].
The like results for EANNLAAAASAKDIYYNNMEEVCG [ATL3] were, in that order, 4.69 ± 0.26 and 4.68 ± 0.18.
The like results for EAVLHCHQMGVVHRDLKPENLLLA [CAMK2A] were, in that order, 2.64 ± 0.27 and 2.58 ± 0.38.
The like results for ECGKAFSQSSYLSQHRRIHSGEKP [ZNF232] were, in that order, 3.57 ± 0.28 and 3.61 ± 0.15.
For the sequence ECYDPRTQQWTAICPLKERRFGAV [GAN], the protein stability index runs as follows: under setting [1], 2.69 ± 0.18; under setting [2], 2.62 ± 0.3.
